Assay results as given in doi:10.1101/2025.10.13.682103.
Several values for one entry are separate records, joined by “and”; a condition that tells them apart may be missing. Identical values can stand only once.

Experiments:
[1] = biological target: Mycoplasma penetrans methionyl-tRNA synthetase, full length, M568A (Mycoplasma penetrans); test: PAGE analysis
[2] = biological target: Mycoplasma penetrans methionyl-tRNA synthetase, full length, M568A (Mycoplasma penetrans); test: cryo-EM structure
[3] = biological target: Mycoplasma penetrans methionyl-tRNA synthetase, full length, M568A (Mycoplasma penetrans); test: cryo-EM structure; remark: listed apart in the source

What does the source list for “Mycoplasma penetrans methionyl-tRNA synthetase, full length, M568A (enzyme)”?
stoichiometry N [1]: 2; stoichiometry N [2]: 2; stoichiometry N [3]: 4 and 6
